The assay concerns the target T1, endogenous Brd4 protein of untargeted androgenetic haploid embryonic stem cells (NC) (mouse, UniProt Q9ESU6 1-1400, limits assumed).
T1 construct: Endogenous, untagged; a mixture of the large and small isoforms in the cell lysate; also called Brd4 large protein (about 250 kDa); Brd4 small protein (110/120 kDa)
Put plainly: Co-IP with Brd4 antibody-coupled beads, western blot. For orientation: In western blotting, separated proteins are transferred to a membrane and probed.

B1: CDK9 (enzyme, UniProt Q99J95 1-372, looked up)
chain: MAKQYDSVECPFCDEVTKYEKLAKIGQGTFGEVFKAKHRQTGQKVALKKVLMENEKEGFPITALREIKILQLLKHENVVNLIEICRTKASPYNRCKGSIYLVFDFCEHDLAGLLSNVLVKFTLSEIKRVMQMLLNGLYYIHRNKILHRDMKAANVLITRDGVLKLADFGLARAFSLAKNSQPNRYTNRVVTLWYRPPELLLGERDYGPPIDLWGAGCIMAEMWTRSPIMQGNTEQHQLALISQLCGSITPEVWPNVDKYELFEKLELVKGQKRKVKDRLKAYVRDPYALDLIDKLLVLDPAQRIDSDDALNHDFFWSDPMPSDLKGMLSTHLTSMFEYLAPPRRKGSQITQQSTNQSRNPATTNQTEFERVF
notes: Endogenous protein co-precipitated from mouse ES cell lysate
For B1, the binding result is listed as “binds”.
